Assay results as given in patent US9758785B2, “miR-520 microRNAs sensitize cancers to platinum-based therapy” (BAYLOR COLLEGE OF MEDICINE, priority 2012, dated 2017).
Entries after “also recorded” stand apart in the source; their conditions may differ.

How the values were obtained:
[1] = system: OVCAR8 cells; test: Viability (MTS) across cisplatin concentrations, stable microRNA clones; type: cell-based, human; conditions: OVCAR8 stable clones vs non-silencing mimic, cisplatin <5 μg/mL
Procedure: (§1) Established ovarian cancer cell lines were obtained from the ATCC (OVCAR8, OVCAR5) and the University of Texas M.D. Anderson Cancer Center (HEYA8, SKOV3ip1). All cell lines were maintained at 37° C. in RPMI 1640 media (Invitrogen, Carlsbad, Calif.) supplemented with 10% fetal bovine serums (Hyclone, Logan, Utah) and 1% penicillin/streptomycin (Gibco, Carlsbad, Calif.). MicroRNA mimics and mimic controls (Dharmacon, Lafayette, Colo.) were transiently transfected into actively growing cultures using Lipofectamine 2000 (Invitrogen, Carlsbad, Calif.). After a 24-hour incubation, transfected cultures were washed, passaged and seeded into 96 well plates. Proliferation and apoptosis were measured at 72, 96 and 120 hours after transfection using standard assays (Cell Titer 96 Aqueous One; Caspase Glo 3/7; Promega, Madison, Wis.). pLemiR expression vectors (Open Biosystems/Thermo, Huntsville, Ala.) were prepared according to manufacturer's instructions and transfected into cells using Fugene 6 (Roche, Indianapolis, Ind.). Following transfection, stable clones were selected using puromycin (Invitrogen) at doses optimized for each line. Rates of proliferation and apoptosis were examined in stable transfectants 24, 48, 72 and 96 hours after selected cells had been passaged and dispensed into 96 well plates. Viability was assessed across a clinically relevant range of cisplatin concentrations using an MTS assay (Promega). Cisplatin was obtained from Teva Pharmaceuticals (Irvine, Calif.).
(§2) For this reason, the inventors created clones of OVCAR8 and SKOV3ip1 ovarian cancer cell lines stably expressing either miR-520h (n=3) and miR-520a (n=3). […] To assess the impact of these microRNAs on cisplatin-induced cell killing, the inventors examined the viability of OVCAR8 and SKOV3ip1 cells stably expressing either microRNA incubated with clinically relevant concentrations of cisplatin. […] It should be noted that SKOV3ip1 cells tolerated only very low levels of miR-520a expression. The impact of cisplatin treatment on rates of apoptosis differed dramatically between the two cell lines.

[2] = system: SKOV3ip1 cells; test: as above; type: cell-based, human; conditions: SKOV3ip1 stable clones vs non-silencing mimic
Procedure: as §1, §2

[3] = system: SVOK3ip1 cells; test: Spheroid formation; type: cell-based, human; conditions: cells stably expressing mimics
[4] = system: UPSC Ark1 cells; test: Cisplatin dose response in uterine cancer cells stably transfected with lentiviral vector; type: cell-based; conditions: UPSC Ark1 cells expressing miR-520h vs non-targeting miRNA control
Procedure: UPSC Ark1 cells stably transfected with lentiviral vector driving the expression of either miR-520h or a non-targeting miRNA control were incubated with increasing concentrations of cisplatin.

[5] = system: lin28A/B; test: Stemness gene expression in media that induce spheroid formation; type: cell-based, human; conditions: OVCAR8 and SKOV3ip1
[6] = system: OVCAR8 cells; test: Spheroid formation; type: cell-based, human; conditions: cells stably expressing mimics
[7] = system: OVCAR8 xenografts; test: Survival and tumor response of xenografted mice treated with cisplatin; type: in vivo
Procedure: Permission to perform animal experiments was obtained from the Institutional Animal Care and Use Committee (IACUC) for Baylor College of Medicine. Eight-week female athymic (Foxn1^nu/nu) mice were purchased from the National Cancer Institute-Charles River and maintained on a standard diet ad lib. Each animal was inoculated intraperitoneally with 2.5×10^6 cells stably transfected with vector driving miR-520h, a non-targeting miRNA control or empty vector. Expression of miR-520h was measured in cell lines using Taqman assays immediately prior to inoculation. Tumor xenografts were followed weekly for tumor progression or regression using the Image Station In-Vivo FX system (Kodak Molecular Imaging Systems, New Haven, Conn.) using endogenous RFP encoded by the pLemiR vector as a tag. At each time point, mice were anesthetized with isoflurane and placed in an imaging chamber, after which, fluorescent intensity images with x-ray overlay were obtained and analyzed. At the completion of the study, mice were euthanized after sedation under isoflurane (Abbott Laboratories, North Chicago, Ill.). For experiments involving treatment, cisplatin was administered at 5 mg/kg to mice by tail vein injection weekly for 4 weeks, after which, 1.5 mg/kg was administered biweekly. Tumor volume and distribution for all animals in each experiment were documented and correlated with imaging results.
To determine whether expression of miR-520h impacted responses of ovarian cancer xenografts to systemically administered chemotherapy, the inventors inoculated Fox1nu/nu mice with 4×10^6 OVCAR8 cells stably expressing either miR-520h mimic, a non-targeting mimic control or empty vector. Once tumor implants were readily palpable, weekly administration of cisplatin equivalent to a dose of 5 mg/kg was initiated and given weekly for a total of 4 weeks. This course of treatment was specifically used to mimic the typical course experienced by women undergoing treatment for this illness. […] This observation is consistent with a sensitization of ovarian cancer cells to cisplatin by miR-520h mimic. Cisplatin was continued approximately biweekly at a reduced dose of 1.5 mg/kg until disease progression requiring euthanasia of animals by IACUC criteria. […] In contrast, median survival for animals xenografted with OVCAR8 cells stably transfected with empty vector or OVCAR8 cells stably expressing non-targeting microRNA control was 79 days and 90 days, respectively.

[8] = system: CDC25c; test: Western blot of CDC25c in OVCAR8 cells; type: cell-based, human; conditions: OVCAR8, particularly when exposed to cisplatin; listed as miR-520g/h
Procedure: (§3) Whole cell lysates equivalent to 30 μg of protein were resolved on 4-12% gradient SDS-PAGE. Resolved proteins were transferred onto PVDF membranes using the iBlot system (Invitrogen). Rabbit polyclonal and/or mouse monoclonal antibodies specifically recognizing ATM, phospo-ATM (Ser1981) CHK1 phospho-CHK1 (Ser216), p21, phospo-CHK2 ([…]), BCL2, XIAP, CDC25A were obtained from Cell Signaling Technologies (Danvers, Mass.). A rabbit polyclonal antibody recognizing FANCD2 was also purchased from Abcam (Cambridge, Mass.). Protein expression was visualized using species-specific, horseradish peroxidase-conjugated secondary antibody (Cell Signaling) and ECL Plus chemiluminescent substrate (Amersham, Buckinghamshire, UK).

[9] = system: ATM; test: Western blot of ATM in OVCAR8 cells; type: cell-based, human; conditions: for ATM degradation / cleavage product (ΔATM): OVCAR8, increasing concentrations of cisplatin; for ATM protein expression: OVCAR8 stably expressing the microRNA vs non-silencing control or empty vector
Procedure: as §3

B1: hsa-mir-520h MI0003175 (nucleic acid, listed as Homo sapiens)
chain: UCCCAUGCUGUGACCCUCUAGAGGAAGCACUUUCUGUUUGUUGUCUGAGAAAAAACAAAGUGCUUCCCUUUAGAGUUACUGUUUGGGA
modifications: expressed or natural sequence
notes: synthetic mimic or stably expressed from pLemiR vector; written miR-520g/h interchangeably
For B1, the “Sensitization to cisplatin (viability)” value [1] was “significantly sensitized”, the “Sensitization to cisplatin (viability)” value ([1]; listed as miR-520g/h) was “sensitized” and the “Sensitization to cisplatin (viability)” value [2] was “significantly sensitized”. The “Sensitization to cisplatin (viability)” value ([2]; listed as miR-520g/h) was “appeared to sensitize”, the “Capacity to form spheroids” value [3] was “decreased capacity to form spheroids” and the “Reduction of IC50 for cisplatin” value [4] was “more than 90%”. For the same molecule, the “Spheroid-media-induced expression of stemness genes (lin28A/B)” value [5] was “eliminates increased expression”, the “Capacity to form spheroids” value [6] was “decreased capacity to form spheroids” and the Mean survival ([7]; 4×10^6 OVCAR8 cells, cisplatin 5 mg/kg weekly 4 weeks then 1.5 mg/kg biweekly) was 114 days. For the same molecule, the Mean survival ([7]; biweekly maintenance IV regimen of 5 mg/m^2 cisplatin) was 130 days, the “Xenograft response to cisplatin regimen” value ([7]; cisplatin 5 mg/kg weekly for 4 weeks) was “nearly complete elimination of disease” and the “Increase in survival vs empty vector control” value ([7]; cisplatin-treated xenografted animals) was about 44%. For the same molecule, the Median survival ([7]; mice xenografted with 2.5×10^6 OVCAR8 cells expressing the mimic, cisplatin doses, controls 90 and 79 days) was 113 days, the “Implant size at necropsy” value ([7]; vs non-targeting mimic control or empty vector) was “significantly smaller” and the “CDC25c and phospho-CDC25c protein level” value [8] was “much lower; also recorded: decreased levels”. The “ATM degradation / cleavage product (ΔATM)” value [9] was “induced both the phosphorylation and degradation”, the “ATM degradation / cleavage product (ΔATM)” value ([9]; listed as MiR-520h) was “promotes a proteolytic degradation” and the “ATM degradation / cleavage product (ΔATM)” value ([9]; listed as miR-520g/h) was “increased levels”. The “Phosphorylated ATM level” value ([9]; OVCAR8 stably expressing the microRNA) was “decreased levels”, the ATM protein expression [9] was “decreased levels” and the ATM protein expression ([9]; listed as Mir-520g/h) was “markedly reduced”. The ATM protein expression ([9]; listed as miR-520g/h) was “significantly less”.
